From the supplement of paper PMC10724198
± gives the standard deviation of the averaged measurements.

Assays:
[1] = test system: Saccharomyces cerevisiae; test: protein stability index of tFT-peptide fusion (C-terminal peptide) (PSI (0-1 scale)); higher = more stable (slower turnover)
Experimental: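 MPS profiling in S. cerevisiae of the tFT-X12 degron library: putative degron peptides plus stable controls, 12 aa, fused to the C-terminus of a sfGFP-mCherry timer. Cells are FACS-sorted into 8 mCherry/sfGFP bins and deep-sequenced. PSI runs from 0 (unstable) to 1 (stable). Backgrounds are wild type, das1Δ and doa10Δ at 30 °C, and wild type, das1Δ, cdc34-1 and cdc53-1 at 37 °C; 2-3 technical replicates each.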

[2] = test system: Saccharomyces cerevisiae; test: as above; conditions: genetic background: wild type; temperature: 30 C
[3] = genetic background: cdc34-1, temperature: 37 C
[4] = genetic background: cdc53-1, temperature: 37 C
[5] = genetic background: das1 deletion, temperature: 30 C
[6] = genetic background: das1 deletion, temperature: 37 C
[7] = genetic background: doa10 deletion, temperature: 30 C
[8] = genetic background: wild type, temperature: 30 C
[9] = genetic background: wild type, temperature: 37 C
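Further: PSI is a weighted mean of sequencing reads over stability bins, variants kept only with over 10 reads, mCherry proximal and sfGFP distal, peptide attached via GGGS linker.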

Row | Sequence | protein stability index [1, 3] | protein stability index [1, 4] | protein stability index [1, 5] | protein stability index [1, 6] | protein stability index [1, 7] | protein stability index [1, 8] | protein stability index [1, 9] | protein stability index [2]
1 | VKGYISLLLVLI | 0.269 ± 0.01 | 0.332 ± 0.012 | 0.264 ± 0.04 | 0.419 ± 0.0071 | 0.289 ± 0.0043 | 0.259 ± 0.014 | 0.365 ± 0.011 | 0.345 ± 0.013
2 | VLAARVVLLRCR | 0.207 ± 0.0095 | 0.216 ± 0.033 | 0.199 ± 0.031 | 0.335 ± 0.0052 | 0.179 ± 0.0064 | 0.195 ± 0.028 | 0.3113 ± 0.001 | 0.2612 ± 0.0024
3 | VLCFTSAYHRLV | 0.662 ± 0.017 | 0.739 ± 0.015 | 0.631 ± 0.0098 | 0.724 ± 0.014 | 0.206 ± 0.014 | 0.262 ± 0.019 | 0.5171 ± 0.0028 | 0.425 ± 0.049
4 | VLFLLLFVSRVA | 0.2684 ± 0.0016 | 0.398 ± 0.017 | 0.259 ± 0.035 | 0.453 ± 0.016 | 0.203 ± 0.012 | 0.224 ± 0.03 | 0.381 ± 0.042 | 0.3312 ± 0.0014
5 | VLLCFFLGIVGF | 0.36 ± 0.045 | 0.487 ± 0.035 | 0.322 ± 0.024 | 0.488 ± 0.011 | 0.296 ± 0.0087 | 0.299 ± 0.012 | 0.489 ± 0.027 | 0.396 ± 0.045
6 | VLLSFVFCGWVR | 0.458 ± 0.014 | 0.4842 ± 0.0018 | 0.345 ± 0.027 | 0.516 ± 0.0096 | 0.326 ± 0.013 | 0.349 ± 0.025 | 0.4963 ± 0.0042 | 0.442 ± 0.019
7 | VLLVSVFVATLL | 0.124 ± 0.013 | 0.256 ± 0.0095 | 0.143 ± 0.033 | 0.334 ± 0.0086 | 0.113 ± 0.0087 | 0.135 ± 0.022 | 0.284 ± 0.0077 | 0.21 ± 0.012
8 | VLVVASLRFSFF | 0.207 ± 0.054 | 0.34 ± 0.036 | 0.197 ± 0.029 | 0.40083 ± 0.00033 | 0.173 ± 0.019 | 0.2 ± 0.014 | 0.38 ± 0.0063 | 0.249 ± 0.017
9 | VLVVRVLLSDLV | 0.178 ± 0.02 | 0.255 ± 0.021 | 0.18 ± 0.028 | 0.36571 ± 8.9e-05 | 0.157 ± 0.012 | 0.17 ± 0.012 | 0.338 ± 0.01 | 0.262 ± 0.0089
10 | VLVVWLGICFGY | 0.166 ± 0.014 | 0.201 ± 0.046 | 0.191 ± 0.033 | 0.37 ± 0.0092 | 0.187 ± 0.0077 | 0.201 ± 0.016 | 0.299 ± 0.0044 | 0.259 ± 0.011
11 | VMYRGVRISWFL | 0.576 ± 0.036 | 0.582 ± 0.008 | 0.424 ± 0.021 | 0.504 ± 0.014 | 0.343 ± 0.04 | 0.354 ± 0.036 | 0.449 ± 0.0086 | 0.38459 ± 6.1e-05
12 | VNILFCLFFLLV | 0.449 ± 0.02 | 0.554 ± 0.027 | 0.419 ± 0.021 | 0.564 ± 0.023 | 0.392 ± 0.025 | 0.36 ± 0.0062 | 0.4772 ± 0.0041 | 0.412 ± 0.013
13 | VPQMLVSVCLSN | 0.301 ± 0.014 | 0.376 ± 0.045 | 0.287 ± 0.032 | 0.423 ± 0.021 | 0.219 ± 0.014 | 0.26 ± 0.029 | 0.392 ± 0.033 | 0.348 ± 0.011
14 | VPQQWFAETGRC | 0.72 ± 0.031 | 0.763 ± 0.036 | 0.668 ± 0.026 | 0.7455 ± 0.0051 | 0.657 ± 0.038 | 0.662 ± 0.028 | 0.742 ± 0.014 | 0.745 ± 0.019
15 | VRFPVFFIILFL | 0.0864 ± 0.024 | 0.0743 ± 0.0032 | 0.15 ± 0.029 | 0.235 ± 0.017 | 0.241 ± 0.014 | 0.142 ± 0.029 | 0.202 ± 0.0029 | 0.239 ± 0.018
16 | VRGSPNVMWKSQ | 0.675 ± 0.028 | 0.778 ± 0.01 | 0.647 ± 0.028 | 0.733 ± 0.028 | 0.194 ± 0.0042 | 0.238 ± 0.022 | 0.508 ± 0.033 | 0.398 ± 0.035
17 | VRLHIAMWLRRC | 0.299 ± 0.02 | 0.271 ± 0.022 | 0.316 ± 0.027 | 0.414 ± 0.007 | 0.138 ± 0.015 | 0.0999 ± 0.025 | 0.18975 ± 1.6e-05 | 0.14 ± 0.027
18 | VRNKFSYVLRLN | 0.488 ± 0.024 | 0.678 ± 0.014 | 0.615 ± 0.016 | 0.747 ± 0.0094 | 0.0804 ± 0.019 | 0.11 ± 0.029 | 0.138 ± 0.037 | 0.179 ± 0.016
19 | VRVLPFCWCIVR | 0.177 ± 0.03 | 0.14 ± 0.0084 | 0.188 ± 0.028 | 0.288 ± 0.005 | 0.263 ± 0.019 | 0.187 ± 0.017 | 0.259 ± 0.046 | 0.274 ± 0.0053
